Source: paper PMC1952073, “The N-Myc Down Regulated Gene1 (NDRG1) Is a Rab4a Effector Involved in Vesicular Recycling of E-Cadherin” (PLoS ONE, 2007)

Target: T1, recombinant flag-tagged NDRG1 purified from Drosophila S2 cells (human, UniProt Q92597-1 1-394)
T1 construct: NDRG1; The vector pMT/BiP/V5-His adds a BiP secretion signal (the protein was collected as secreted protein); also called NDRG1flag; NDRG1Flag; not shown: Flag, C-terminal, kept
Assay: pull-down; NDRG1Flag bound to M2 agarose; 1 microgram of purified Rab4aGST loaded with 10 µM GTPγS (30 min, 37 °C) in 20 mM HEPES, 1 mM MgCl2, 1 mM DTT, 100 mM potassium acetate, incubated 1 h; Western blot
Details: both partners purified

T1 sequence (Q92597 whole entry): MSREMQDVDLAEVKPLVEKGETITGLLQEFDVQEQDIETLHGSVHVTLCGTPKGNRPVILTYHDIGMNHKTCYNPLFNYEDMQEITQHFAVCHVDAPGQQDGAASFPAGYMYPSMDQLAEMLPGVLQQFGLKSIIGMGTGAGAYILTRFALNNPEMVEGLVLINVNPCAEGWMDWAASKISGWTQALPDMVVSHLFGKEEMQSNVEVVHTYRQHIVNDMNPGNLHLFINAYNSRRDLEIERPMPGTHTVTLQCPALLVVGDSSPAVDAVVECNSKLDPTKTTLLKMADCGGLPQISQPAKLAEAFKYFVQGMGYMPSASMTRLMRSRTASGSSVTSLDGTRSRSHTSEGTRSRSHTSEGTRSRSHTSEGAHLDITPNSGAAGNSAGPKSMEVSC

binding result: binds
B1: Rab4a produced as a GST fusion protein (natural protein, UniProt P20338 1-218, looked up)
chain: MSQTAMSETYDFLFKFLVIGNAGTGKSCLLHQFIEKKFKDDSNHTIGVEFGSKIINVGGKYVKLQIWDTAGQERFRSVTRSYYRGAAGALLVYDITSRETYNALTNWLTDARMLASQNIVIILCGNKKDLDADREVTFLEASRFAQENELMFLETSALTGENVEEAFVQCARKILNKIESGELDPERMGSGIQYGDAALRQLRSPRRAQAPNAQECGC
notes: Rab4a amplified from a prostate cDNA library and cloned in PGEX2T; also called Rab4aGST; recombinant Rab4a; source: E. coli BL21 (DE3), purified (glutathione agarose)
